Assay results reported in patent publication US20180194853A1 (published 2018).

Experiments:
recombinant human IL-2Rβ = target: T1, recombinant human IL-2Rβ (human, UniProt P14784 27-240); assay: SPR, receptor chain immobilised on the chip, antibody flowed over
T1 construct: Recombinant chain immobilised on the SPR chip and used as ELISA antigen; also called CD122; interleukin 2 receptor β
T1 sequence (looked up): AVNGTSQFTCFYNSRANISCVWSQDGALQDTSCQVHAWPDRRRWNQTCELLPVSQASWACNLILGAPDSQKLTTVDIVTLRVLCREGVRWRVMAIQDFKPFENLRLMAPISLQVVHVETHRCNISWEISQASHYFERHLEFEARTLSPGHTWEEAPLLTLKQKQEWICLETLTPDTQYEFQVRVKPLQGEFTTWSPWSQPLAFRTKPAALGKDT
Experimental: (§1) Association/dissociation of the anti-IL-2Rβ/γc bispecific antibody to/from the receptor chains was measured in Surface Plasmon Resonance using recombinant IL-2Rβ or γc chains immobilised on a chip, and flowing various concentrations of the antibody over the surface.

recombinant human γc = target: T2, recombinant human γc (human, UniProt P31785 23-262); assay: as above
T2 construct: Recombinant chain immobilised on the SPR chip and used as ELISA antigen; also called common γ chain; CD132
T2 sequence (looked up): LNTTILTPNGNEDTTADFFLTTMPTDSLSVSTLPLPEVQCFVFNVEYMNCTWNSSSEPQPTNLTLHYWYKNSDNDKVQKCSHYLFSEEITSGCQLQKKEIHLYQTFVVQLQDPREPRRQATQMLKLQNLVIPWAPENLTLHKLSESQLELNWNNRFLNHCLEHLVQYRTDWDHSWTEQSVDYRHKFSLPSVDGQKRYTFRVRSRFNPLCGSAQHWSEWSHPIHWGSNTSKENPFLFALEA
Experimental: as §1

- Kd (recombinant human IL-2Rβ): 101 nM
- Kd (recombinant human γc): 79.8 nM
B1: bispecific anti-IL-2Rβ/γc antibody P2H7/P2B9 (bispecific antibody)
chain 1: not shown
chain 2: QVQLQESGPGLVKPSETLSLTCTVSGGSISSSSYYWGWIRQPPGKGLEWIGSIYYSGSTYYNPSLKSRVTISVDTSKNQFSLKLSSVTAADTAVYYCAGDILTGYALDYWGQGTLVTVSSGGGGSGGGGSGGGGSSYELTQPPSMSVSPGQTARITCSGDALPKQFAFWYQQKPGQAPVLVIYKDTERPSGIPERFSGSSSGTTVTLTITGVQAEDEADYYCQSPDSSGTVEVFGGGTKLTVLNSGAGTAAATHTCPPCPAPEAAGGPSVFLFPPKPKDTLMISRTPEVTCVVVDVSHEDPEVKFNWYVDGVEVHNAKTKPREEQYNSTYRVVSVLTVLHQDWLNGKEYKCKVSNKALPAPIEKTISKAKGQPREPQVCTLPPSRDELTKNQVSLSCAVKGFYPSDIAVEWESNGQPENNYKTTPPVLDSDGSFFLVSKLTVDKSRWQQGNVFSCSVMHEALHNHYTQKSLSLSPGK
